# From patent publication US8697648B2, “Protein agent for diabetes treatment and β cell imaging” (Georgia State University Research Foundation, Inc., priority 2009, dated 2014)
# Where two headings read alike, the source gives them in different places.
# T1: GLP-1 receptor (Rattus norvegicus, UniProt P32301)
# T1 construct: It is well known that GLP-1R is expressed in RINm5F but not in CHO cells; endogenous in cells; host or cells: RINm5F rat insulinoma cells
# T1 sequence (P32301 22-463): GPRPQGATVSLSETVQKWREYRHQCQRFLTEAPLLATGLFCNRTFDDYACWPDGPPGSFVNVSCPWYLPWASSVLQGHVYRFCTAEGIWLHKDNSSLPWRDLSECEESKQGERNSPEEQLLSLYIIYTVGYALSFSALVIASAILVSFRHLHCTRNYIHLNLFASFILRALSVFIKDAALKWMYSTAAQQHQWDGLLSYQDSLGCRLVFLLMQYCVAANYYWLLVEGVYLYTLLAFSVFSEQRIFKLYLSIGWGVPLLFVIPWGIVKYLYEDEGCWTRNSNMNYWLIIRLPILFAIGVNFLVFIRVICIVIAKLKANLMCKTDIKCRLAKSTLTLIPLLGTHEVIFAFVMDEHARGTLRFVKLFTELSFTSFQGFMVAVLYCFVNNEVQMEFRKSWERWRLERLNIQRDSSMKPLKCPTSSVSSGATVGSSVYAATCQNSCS
# How the values were obtained:
# [1] = R1 and R2 relaxivity with a relaxometer; format: physicochemical; conditions: 1.4 T
# Description: To ensure that the fusion protein is applicable as a MRI contrast agent, the Gd^3+ binding property and R1/R2 relaxivity of the fusion protein were tested using well-known methods.
# [2] = cited from earlier work
# [3] = tested on: diabetic mice; experiment: Blood glucose and glucose-dependent insulin secretion after co-administration with glucose (Example 16); format: in vivo; conditions: 25 nmole/kg agent with 15 mmole/kg glucose i.p.
# Description: FIG. 12 is a pair of graphs showing the changes in Δ blood glucose (Upper panel) and Δ insulin (bottom panel) in a group of 8 diabetic mice at different time points after injection of 15 mmole/kg of glucose with 25 nmole/kg of different agents.
# The effects of the developed agent on blood glucose lowering and stimulating of the glucose-dependent insulin secretion in diabetic mice were also examined. The animals first fasted for 6 hours. The protein agent (25 nmole/kg) and glucose (15 mmole/kg) were co-administrated via intraperitoneal injection with a group of eight diabetic mice. The blood glucose and insulin levels were measured at different time points. As controls, the same dose of glucose was administrated alone and co-administrated with the parental protein calbindin in separate groups of diabetic mice.
# [4] = tested on: Diabetic mice (BKS.Cg-Lepr^db/db); experiment: Blood glucose lowering in fed diabetic mice (Example 15); format: in vivo
# Description: The animals were re-feed for 25 minutes 5 hours after drug administration and 35 minutes before the last time point of blood sample collection. The A Blood Glucose (mg/dl) was determined by calculating the difference between the measured blood glucose levels at any given time point and the initial blood glucose levels. The initial blood glucose levels were measured after feeding for 20 min and before the drug administration (time zero). The error bars represent standard deviations of measurements of eight mice.
# The developed protein agent was tested to determine whether it had the in vivo capability of lowering blood glucose in diabetic subjects. Diabetic mice (BKS.Cg-Lepr^db/db, The Jackson Laboratory) were used as test subjects. A group of six animals first fasted for 6 hours. After fasting, the animals were fed for 30 minutes. The protein agent was administered after feeding by intraperitoneal injection at a dose of 25 nmole/kg. The animals were fed again for 30 mins, 5 hrs after agent administration. Blood samples were taken at different time points after administration of the agent. Glucose concentration in the blood samples was measured using a commercially available kit.
# [5] = tested on: RINm5F cells; experiment: Immunostaining binding analysis, RINm5F cells (GLP-1R expressed); format: cell-based, rat; conditions: Cal.GLP 10 μM, calbindin D9k 50 μM, 37° C., 30 mins
# Description: (§1) FIG. 10 is a series of digital images showing immunofluorescence staining of CHO or RINm5F cells that were treated by calbindin (50 μM) and Cal.GLP (10 μM). The cells were extensively washed after 30 min treatments under 37° C. in microscopic chamber slides and subsequently fixed. The cells were stained with the calbindin-specific antibody and visualized under confocal microscopy. The light shading represents antibody staining.
# (§2) To examine whether the developed protein indeed interacted with GLP-1R, the binding of the fusion protein with two cell lines, RINm5F and CHO cells was examined. It is well known that GLP-1R is expressed in RINm5F but not in CHO cells. Both RINm5F and CHO cells were incubated with fusion protein Cal.GLP (10 μM) or calbindin D9k (50 μM) at 37° C. for 30 mins. After extensive washing, the cells were fixed and subjected to immunostaining analyses using a rabbit polyclonal antibody against parental protein calbindin D9k. […] Similar binding analyses were carried out with RINm5F cells and a […] (αTC1).
# [6] = in vivo
# [7] = target: T1, GLP-1 receptor; experiment: Cell-based intracellular cAMP assay (Lance cAMP 384 kit) in RINm5F cells; conditions: concentration around 200 μM
# Description: The cells were harvested 30 minutes post treatments. Cell lysates were prepared from the harvested cells. The cAMP levels in the lysate were then measured and expressed as pmole values. The error bars represent standard deviations of four times of measurements.
# A Lance cAMP 384® Kit (Perkin Elmer, Inc) was used to compare the incretin effects of fusion protein and PEGylated protein. Rat Insulinoma cells (RINm5F) were cultured with RPMI1640 with 10% FBS in 75 cm^2 cell culture flasks. Cells are harvested and washed three times with HBSS (Invitrogen Corp.) buffer. A series of 5 μl test protein and 5 μl cell suspension with 5000 cells in stimulation buffer (1×HBSS buffer with 5 mM HEPES, 0.1% BSA and 150 mM IBMX) and Alexa, biotin labeled cAMP antibodies were incubated at 37° C. for 15 mins in 384-well plate. […] A VICTOR^3 plated reader (PerkinElmer, Inc.) was used to detect the fluorescence signal at excitation 340 nm and emission 665 nm and 615 nm. The collected data was then analyzed with the equation of F=F665 nm/F615 nm. […]
# The effects of the PEGylated proteins and unPEGylated protein in stimulating the cAMP production were examined in rat insulinoma β-cells RINm5F. The cAMP production was analyzed using a commercial cAMP kit (PerkinElmer).
# [8] = tested on: CHO cells; experiment: Immunostaining binding analysis, CHO cells (no GLP-1R); format: cell-based; conditions: Cal.GLP 10 μM, calbindin D9k 50 μM, 37° C., 30 mins
# Description: as §1, §2
molecule,measurement,setting,value
"O=C(O)CN(CCN(CC(=O)O)CC(=O)O)CCN(CC(=O)O)CC(=O)O (Gd complex, metal not drawn) [DTPA, reference compound]",R1,[1],3.8 mM^−1S^−1
CC[C@H](C)[C@H](NC(=O)[C@H](Cc1ccccc1)NC(=O)[C@H](CCC(=O)O)NC(=O)[C@H](CCCCN)NC(=O)[C@H](C)NC(=O)[C@H](C)NC(=O)[C@H](CCC(N)=O)NC(=O)CNC(=O)[C@H](CCC(=O)O)NC(=O)[C@H](CC(C)C)NC(=O)[C@H](Cc1ccc(O)cc1)NC(=O)[C@H](CO)NC(=O)[C@H](CO)NC(=O)[C@@H](NC(=O)[C@H](CC(=O)O)NC(=O)[C@H](CO)NC(=O)[C@@H](NC(=O)[C@H](Cc1ccccc1)NC(=O)[C@@H](NC(=O)CNC(=O)[C@H](CCC(=O)O)NC(=O)[C@H](C)NC(=O)[C@@H](N)Cc1c[nH]cn1)[C@@H](C)O)[C@@H](C)O)C(C)C)C(=O)N[C@@H](C)C(=O)N[C@@H](Cc1c[nH]c2ccccc12)C(=O)N[C@@H](CC(C)C)C(=O)N[C@H](C(=O)N[C@@H](CCCCN)C(=O)NCC(=O)N[C@@H](CCCNC(=N)N)C(N)=O)C(C)C [GLP-1 peptide],circulation time,[2]; degradation by DPP-4,less than 2 minutes
CCCCCCCCCCCCCCCC(=O)N[C@@H](CCC(=O)NCCCC[C@H](NC(=O)[C@H](C)NC(=O)[C@H](C)NC(=O)[C@H](CCC(N)=O)NC(=O)CNC(=O)[C@H](CCC(=O)O)NC(=O)[C@H](CC(C)C)NC(=O)[C@H](Cc1ccc(O)cc1)NC(=O)[C@H](CO)NC(=O)[C@H](CO)NC(=O)[C@@H](NC(=O)[C@H](CC(=O)O)NC(=O)[C@H](CO)NC(=O)[C@@H](NC(=O)[C@H](Cc1ccccc1)NC(=O)[C@@H](NC(=O)CNC(=O)[C@H](CCC(=O)O)NC(=O)[C@H](C)NC(=O)[C@@H](N)Cc1cnc[nH]1)[C@@H](C)O)[C@@H](C)O)C(C)C)C(=O)N[C@@H](CCC(=O)O)C(=O)N[C@@H](Cc1ccccc1)C(=O)N[C@H](C(=O)N[C@@H](C)C(=O)N[C@@H](Cc1c[nH]c2ccccc12)C(=O)N[C@@H](CC(C)C)C(=O)N[C@H](C(=O)N[C@@H](CCCNC(=N)N)C(=O)NCC(=O)N[C@@H](CCCNC(=N)N)C(=O)NCC(=O)O)C(C)C)[C@@H](C)CC)C(=O)O [Liraglutide],blood circulation time,[2]; in vivo,more than 10 hr
Exendin 4 [reference compound],time of immediate insulin increase and glucose decrease,[3],≤ 30 min
same,drop of blood glucose levels,"[4]; 25 nmole/kg i.p., within 30 minutes",about 189 mg/dl
same,blood glucose levels after re-feed,"[4]; 6 hours post administration, one hour after re-feed",almost reached the same blood glucose levels before the drug treatments
"calbindin: parental host protein human Calbindin D9k, negative control; SEQ ID NO: 13 (protein, human calbindin D9K) MSTKKSPEELKRIFEKYAAKEGDPDQLSKDELKLLIQAEFPSLLKGPNTLDDLFQELDKNGDGEVSFEEFQVLVKKISQ",binding to RINm5F cells,[5],did not bind to either cell
same,blood glucose lowering post glucose and drug administration,[3],did not
same,change of blood glucose levels,"[4]; control group, same dose (25 nmole/kg)",decreased slightly
same,R1,[1],6.58 mM^−1S^−1
same,blood circulation time,[6],more than 24 hours
same,increase of intracellular cAMP level,[7],could not increase cell intracellular cAMP level
same,binding to CHO cells,[8],did not bind to either cell
Cal.GLP/Q26D: Q26D variant of the Cal.GLP fusion protein; SEQ ID NO: 18 (protein) MSTKKSPEELKRIFEKYAAKEGDPDDLSKDELKLLIQAEFPCLLKGPNTLDDLFQELDKNGHAEGTFTSDVSSYLEGQAAKEFIAWLVKGR,R1,[1],20 mM^−1S^−1
